Source: the DeepSol protein solubility set

Test: soluble on expression in E. coli; label from the status in PepcDB or PDB records

Sequence | soluble on expression in E. coli
MAHHHHHHMTDIAHGSRYDRDAAISTAAEQVAAGQYAENKPRAIMFVNKRPVEIIPQEENVLEVLEREGITVPKFCYHPILSVAGNCRMCMVQVDGTQNIVVACSTVALPGMSIITDSRLVRDAREGNVELILINHPNDCPICEQATNCDLQNVSMNYGTDIPRYREDKKAVEDFYFDPQTRVVLNRCIHCTRCIRFLNEHAQDFNLGQIGRGGLSEISTFLDELEVKTDNNMPVSQLCPVGKLYMGDADENNDIVRELEAAGATA | not soluble
MAHHHHHHMTEPVRILVRRDEITVDSIMQYFVAVDEEKNKFETLCDLYDTLTIAHAVIFCNTRKKVEQLAKKMRKEKFSVSCMHGDMPQAERDEIMRNFREGKSRVLISTDLWSRGIDVEQVSLVLNYDLPFSREQYIHRIGRTGRMGRKGLAISFVKHDELRLLRDVEQFYATQIEELPANIADQF | not soluble
MAHHHHHHMTESTHLIDAGCFISQMNELVLIDPLYMNYVITNYFNYLINDKNELLPKESLNGVYFENAKPGLWSSFAIKEKNIFLPNSQKMEQNMIDLGIDKNYGNEIITSFACFNNTEFMHEYLTVEKLNELKWEKFESNINCIGNHNNGNIYKSQSKEEDKPINFSNYFTNILTVESGQVGLFCTESIKNCTNALLEKYEIYDIKNKEELDNFFNKNMNDLYPWYNKICNLTLSSSITIIDYIDMPLGSVCMSGSDCVSNYLCEVVKDDITGEIWAIRVNFFNPFK | soluble
MAHHHHHHMTEYEEKERKTSLAALRRFVKHCGPTRFTFITRIPLSRNTNQVNGTLLLENGDLTVCAQDMKANIADIREDIASFSVPQHQDFIRAFEEAKNMLKNELAALQEHKSILMVQYEMARP | not soluble
MAHHHHHHMTFSVKGGSYSSSHPSPAMHPYVSPSLLPQSHGQQAPPSFSLGDEQYVGVPKRVGVDPTKYKTTICRNWEQTGTCAFRGCTFAHGVEELRAPLRPDGHTPVLRPQHISPGSTPPLRASQPPPPPSSGHYTLEQLLDMLYKEVLHQRELVTVHVEANTTLEGMLRREQAQHDASKKQLEEKTQQCELFARELFARNQQLRKAADSSPEIKELLDQWETQLASFSEADVKKDDVFHTATATSSTDDGGDSGKEYESARIEELLRALQR | not soluble
MAHHHHHHMTTMARVDETLARFKGKSPRDSYKQVCGELDVHMQREIYAALPEKPMAWHHIYTLDLEKALLGTKGCMAMLPLITVSTSMRKLSLRSCGLSDEFVIQLCAVLQSHPSLRSVDISDNELVTVYSAPHIISVMRNNSNMVLFDVYNTHVGSNVGDIIAKLGQRNLDNVLHYYEDRYFRMKNLFNYMDADGTGWVVLKSLVLNCPYPVLQEQFVERIATKQPRKRSDNTISINTFLQLVYMNYKTEAEIGTYSNKTIDEPYVFMVANWKQLLYAVERYNARAAAMGDGQGPHPPVQLPDNFHRWRLRDYIITPDDADALVEGAVQLIEHSSAMAEGEPELNESGERAEPDAEVDSDKETAENAAEAAPLVIPITILLRAAKSVLVLPPSVAKPSYSFYTDRDAAYVPEILRNGSRLFSVSRLSCLFSGGASTTGDSASSPDVLQDSADRPHTFSLPASVVKMVVDFFNKEHKKLPTKKQSMIPDSPQTRRDKAMEKAAIPVPTFLSAEFVSDLERVCPRFLADYYSRHALLIEDGTITLQEMVNVLDEMYAQCRIDRIISLADIKAMPDPMKDKSLVSFVTAHFADRDEDISFLEPFNDVVAY | soluble
MAHHHHHHMTVKVASEVSLLPYGEHQGSFRGVVACSNRDDGYFSGENNYVDTSIYTGFRYQCVEYARRFLLLTTGCVFANCGRASEIYAMDHITHVETGAQYTLHRHHNDGTATQKPAPGDIIIYPYHPELTPWGHVGVISFVDDNRVGIAEQNHYFGPFTSPSESYLDGERCVARYAMLTLDEATKTWRIDEPGAMPSAVGWLSYPDAPTREQIHAPFTPLPCAIKVRSTPFDQDDHPFLTHYHLHKIFDIPSGCVRHAYGMRNGTAETLVGATSAAARVLRFTLHLLFHRGRLGPAFRALPTNPLNATLPEGAGASTEACREVDALFKVLAEEDVVNATETTPDRLRQAVATYFDIPVEWVMAMERDFAKGETHMAAVVSFYPNIATDSAALEAFRAARKRSGTWAAPAVGTVPLTTAKASTPVAEEPLTLSYPATVEELPLKNPHDEAWHLATVNFGNARVMTELSQLNKVKQDLTETIALMTPSMRPFISTQYRMDFAGYLKVVEAVYGPRTGFTIVVSDDQPMDGLLRELVSTVQNLCEHVEYPVRIVNEKDLTFVNGKLHATPSAISPEAGSHMTNIAPSGAYDVNFVYALCEWPRILACREATHAALYRAAVDPASDVVFAKPLWSYLCSGAVNVSDDAERAHYSHSPRSPSVRFFDVCRRLYLLASPTQQPKTWDLEVSEYKDSCRRIHVDAETVPMHSPAHLNADSLMINLAGSCYMGHAGGTLSVESENTGIHVGHPAFLMFMFPAD | not soluble
MAHHHHHHMVCRSKRASSFRHRVVHACVTEQRVLPSCRIHVVLRNFSADFSSLSPRCHYTSAGLLLHPSPLPPPSSTSSRLSTSIPPFRFTRAESSAAVFSMSIGTDYLSAMLNYNGCLQERILRRLLIIENETDSLLALRCALVPLQTPTRKRKRHTEPVAAQGTSFNVDVDTTRHRWSTELCEALNDEAAKANCIASLCPPAKERWCAVAAALRRAGHPSFTPYELFTKYKEMHSDSRPFALSEARFVCQYVQEHGGDWQGLCQALRQRLGHVRSPFQVAQQYRQRLRCAFVENRLTSSQLLTLLADLPASPQDRDFAALSVEAQRFTSHKTLQVSPLYLKRELEPLDFAARVPTCHHLYWKLVNLLCNFTLSHPNRLHAFQHRMPFCYQQRSLADLARSLQCEAAELQERVVHALLRLSRPPEALNYEECSKKLFGTVCGAQLIYQISEKLHEKDI | soluble
MAHHHHHHMVLYIIGLGLGDEKDITIKGKELIEKSDVVYLETYTSILFVSKDVLEETYKKSIEEVDRDFAEENCDKILDEAKNKKVSFLVVGDPLCATTHHDIILRAKKKNIDVEIIHNTSIISAIGECGMQLYNFGQIVSIPYFEDNYKPTSYYDKIYINLKNNFHTLCLLDIKVKERTVENIMRNKKIYEPPRFMTINDSIEQLLYCEHIHKKNIITKNTLGIAIIQIGTDNQQIISGDLLTLKDISYNKPLHSLIICAPTLHDIEKEYFDLYHYNNMKK | not soluble
MAHHHHHHMVSDPSFCKKAPSSDLLGSNGRKVPPSFIAPPSSDVFLTSRRKTSFRNKSALTCLGKDVMSVSYGCGMRFRKAVRSGLSVFREAITLTDGGRHEGSHSRTSDSRPPQLSKRSMREIRRRIISPSYLEITSRTSTASSSTLRYIRLDFFKKTRRR | not soluble
MAHHHHHHMVVPVMNMTREPAVDSPENSRKISLAGYPEVAGLFCVTVFKSTLDLEVRDCCGLLTLDGVGKCVELKKFSISNCGMLTNISDLKDCVNLEMLTLSGCKTLRNLTPLKGHRTLSCITISHCERMMELDLEGATNLMQLNISDCEELKDVHVSRCTRLEVIDIHDCVKLEKLHGLTYLRELKTLILAGNRELSAVEGINELINRVEKLSLKNCEKLEDLKFLDFCNFLKEVVVAGSNVTEEKKQELRGKGVRIVNEVKVADG | not soluble
MAHHHHHHMVVVKGTEYYDGRTKNYVDYPITDVLQMVGRAGRPQFDTEGVAQVLCHEPKKGFYRKFLYDPFPVESTLHKQLHVHINAEIVAGTITTRQDAVDYLTWTYLFRRLVKNPSYYGVEDRSPKAVTIFISTLVANVLDELEACGCIASPGDDEEDDVSRKVTGMSAAGGTDDEKDPDALTCTVLGRLCSYYYLSHKTVRYFDAHIGADSSHVDVLKALCEAEEFNELPVRHNEDKLNLVLSQLLPFPINPNNAESPHVKAFLLFQAHFERASLPISDYYTDLKSALDNAVRVVQAMVDITSNNGHLYAALRCMSLLQCMVQGIWWHSSTLLQIPHVTAGMLPVIASRCGNLEHAAQVANSSITALQTLKAVLREDCGLSETQLREAMAAIQGFPLIDVRLCLSRTPDRTSNSGDAEHSDDGSKTAADVTYTLTVHLTRLSVHNKHVVAPHFTKPKDEQYWLVVGNEKTGELIALKRVNRLVNCVELTLSFEWDDEWAEFAEGGAVALSLYVVCDSYVGLDQQYNFSVPVPVDM | soluble
MAHHHHHHMWFGQLVIGPPGSGKSTYVAGVEHILRQINRKLVLINLDPFVENDVYKADVNISDLVDIKKVFCDLGLGPNGTLIYCMEYLLINFDWLEEKLKEHKDHYLLIDTPGQVELYTHNDALRKIVEKMTKMNCRLTSVHIVDSTLCSDNYKYVSALLLSLCSQIHLELPHVNVFSKIDLLKYFRDDLNFPLSYYVEAQNLEQLMLYARYQNESSSGSEGVNMGDDSPSGSLNDRSSCAQSAIKQAIRNDINSGRIKNVRKNYKKFSNKFLKLNEYICETVEDYNMINFALLDIQDKYSVLKLLKIIDGANGFRFSSIYSEYSLFDTYAEAIEYDCDDIQEKIVDVSDEEKEASLSGHPPHG | not soluble
MAHHHHHHMYAGFPRLNVTEAQETVDLDFELTNEKGCVKVTEFPVPKVVNLSFPAVCALLYNARTATSSRNIFGSVIGLQLQDTVEVTDVKTNPSIDIEEDDRMTEEERMERVRKERKLLDADKAIFENMYNQENLDTNVIGQFVVSSARFNPFSTRTMRKLQELHRESLPAILLTYDPFRTGLLGRPHIRAYTPTAAYYKYDSLVSTERGYQRRRSLAQYAKESGITKEGVLHEIPVKLEVDAFHKLNLMNVPPTAVGDSFKAIQSMAVSNYIEALLSSIRNNTDQLKQKLDYEGNVKDNGNVPVGQDAETMLLMKHVRDQTDHLDALCDSALLYSSLLRDL | soluble
MAHHHHHHMYEKTHVTTYPVMGCQISVGTTASRRSKGLNATRSGVDGALTSGTVDGRDPKSTGADNSVSLAYAVPAVKPVTYNDYRGFQVTMVNGTLAKINNICRWLDTALDKREKNGGWCMDVLAESVSSGKMETSFYCESIVQASHHVTHYCGQERANGVEYFAEVHSQQVFEKSAVSRTFDCPSAKFVYNSRFEEIPRQSDITTTQLNKETSDSGIPNGREAMIRYSPTSSEDGGRLNE | not soluble
MAHHHHHHMYRNLFDKLKDGPLKISILGSGNWASAISKVVGTNAKNNYLFENEVRMWIRDEFVNGERMVDIINNKHENTKYLKGVPLPHNIVAHSDLASVINDADLLIFIVPCQYLESVLASIKESESIKIASHAKAISLTKGFIVKKNQMKLCSNYISDFLNIPCSALSGANIAMDVAMENFSEATIGGNDKDSLVIWQRVFDLPYFKINCVNETIEVEICGALKNIITLACGFCDGLNLPTNSKSAIIRNGINEMILFGKVFFQKFNENILLESCGFADIITSFLAGRNAKCSAEFIKSTPKKTWEELENEILKGQKLQGTVTLKYVYHMIKEKNMTNEFPLFTVLHKISFENEDPSSLLKTFMNNKINQLNL | soluble
MAHHHHHHSLSELVIESWRADDKALWEQKIIPAFEAANPGIKVKFNPVPNVNYTPTLWENLKAGKAGDLITCRPFDDSLALFKAGHLAEITEMAGMENFPSFAQAPWQTDSGAQTFCVPMASVIHGFFYNKKIFNELGLSVPQTREQFFTVLDKVKADGRYIPLSMSGSESWVASELGYQNIGPNYWKGEDGRLALINGQEHLDDSQYVKVFEELARWRAYLGEDGELRDYGTSNELFTSGKAALYVAGSWEIAPFTDKVDFGVMRPPVAKQGDGCFFTDHTDIGMGMNPASKNPQAAMAFLQWLTTPEFAELYTNSLPGFFSLSNHFFDVTNPAAREMMEWRDQCDSTIRVATQILSRGQPKLGDELAEVSQAVLVGKMTPTAAAERLEQGLKRWYAPHQTRKAKEQECQCVEPISPTTRLNTLPVVDIAPVVASDPVPPTEATILSEEG | not soluble
MAHHHHHHVDDDDKMVTDQRWLIDKSALVRLTDSPDMEIWSNRIERGLVHITGVTRLEVGFSAECGEIARREFREPPLSAMPVEYLTPRIEDRALEVQTLLADRGHHRGPSIPDLLIAATAELSGLTVLHVDKDFDAIAALTGQKTERLTHRPPSA | soluble
